# Assay results as given in paper PMC3755335, “Inactivation of the phosphoglucomutase gene pgm in Corynebacterium glutamicum affects cell shape and glycogen metabolism” (Bioscience Reports, 2013).
# B1: phosphoglucomutase Pgm (main Pgm isoenzyme, encoded by pgm, cg2800) of Corynebacterium glutamicum (enzyme, UniProt Q8NMN0 1-554, looked up)
# chain: MAHERAGQLAQPEDLIDVAELVTAYFTRKPDVNNPDQQVAFGTSGHRGSALDSAFNEDHILATTQAIVDYRNQQPKNWVGPLFIGRDTHALSEPAMISALEVLIANDVEVLVDADGRYTPTPAVSHAILRHNDGIILGTAGPSRPYADGIVITPSHNPPRDGGFKYNPANGGPADTDATDWIANRANDILRGDLADVKRVPVSGVLDERTTAYDFKGIYIADLPNVVNIDAIREAGVRIGADPMGGASVDYWGAIAETHGLNLTVVNPHVDSTFRFMTLDTDGKIRMDCSSPHAMASLIDNRDKFDVATGNDADADRHGIVTPDAGLMNPNHYLAVAIEYLFAHRPGWSADTAVGKTLVSSSMIDRVVAQLGRTLVEVPVGFKWFVPGLISGEIGFGGEESAGASFLRMDGTTWSTDKDGLILDLLAAEIIAVTGKTPSQRYAELAEEFGAPAYARTDAEANREQKAILKALSPEQVTATELAGEAITAKLTEAPGNGAAIGGLKVTTENAWFAARPSGTEDKYKIYAESFKGEEHLAQVQKEAQALVSEVLGQ
# notes: Phosphoglucomutase Pgm of Corynebacterium glutamicum, ORF cg2800 (pgm), native enzyme; band of approx. 60 kDa on SDS/PAGE assigned to cg2800 by MALDI-TOF-MS peptide fingerprinting; Endogenous, untagged enzyme; the final gel filtration fraction still held a second band (approx. 80 kDa, cg2523, malQ); also called α-Pgm; pgm gene product
# Columns and labels:
# [1] = substrate: O=P(O)(O)O[C@H]1O[C@H](CO)[C@@H](O)[C@H](O)[C@H]1O; experiment: coupled assay with glc-6-P dehydrogenase (NADP reduction); format: biochemical, Corynebacterium glutamicum; details: 100 mM Tris/HCl pH 7.4, 10 mM MgCl2, 1 mM NADP, 2 units glc-6-P dehydrogenase, glc-1-P 0.05–20 mM
# [2] = molecular target: the molecule itself; experiment: SEC; HiLoad XK16/60 Superdex 200 PrepGrade, 0.02 M sodium phosphate, 0.15 M NaCl, pH 7.4, 0.5 ml/min; fractions screened by Pgm activity; retention volume compared with standard proteins (LMW and HMW calibration kits)
protein,measurement,setting,value
B1,Km,[1],1410 ± 230 µM
same,stoichiometry N,[2],2
